One substance from article PMC10516418 can be followed below.

The test concerns the target HMPV F v3B_Δ12 (human metapneumovirus). The experiment in a line: BLI; Octet Red384; […] (500.0 nM to 7.8 nM), 300 s association and 300 s dissociation; 30°C, […]; global 1:1 fit.

For MPE8 antigen-binding fragment (Fab), the Kd – broadly, the constant that tells how readily two partners part at equilibrium – is 21 nM.
